T1: recombinant protein CDH6 (UniProt P55285 54-615)
T1 construct: also called CDH6 recombinant protein; CDH6 antigen
T1 sequence (looked up): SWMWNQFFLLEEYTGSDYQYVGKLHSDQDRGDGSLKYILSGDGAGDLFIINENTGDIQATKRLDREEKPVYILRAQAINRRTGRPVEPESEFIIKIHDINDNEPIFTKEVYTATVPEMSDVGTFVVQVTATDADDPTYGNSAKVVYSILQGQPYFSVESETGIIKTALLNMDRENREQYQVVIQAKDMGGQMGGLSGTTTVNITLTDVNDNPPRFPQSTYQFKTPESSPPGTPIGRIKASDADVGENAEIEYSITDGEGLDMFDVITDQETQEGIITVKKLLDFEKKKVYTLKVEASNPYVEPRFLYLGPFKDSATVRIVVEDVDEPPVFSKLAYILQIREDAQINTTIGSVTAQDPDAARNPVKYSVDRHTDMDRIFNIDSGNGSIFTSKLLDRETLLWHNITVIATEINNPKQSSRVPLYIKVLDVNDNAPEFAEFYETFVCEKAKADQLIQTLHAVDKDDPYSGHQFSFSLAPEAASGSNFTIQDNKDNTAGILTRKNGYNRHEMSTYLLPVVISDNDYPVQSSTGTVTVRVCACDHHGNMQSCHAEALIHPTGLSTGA

T2: CDH6 on the cell surface of OVCAR-3 cells (human ovarian cancer cells) (human, UniProt P55285 54-790)
T2 construct: whole, on cells; also called CDH6-positive human ovarian cancer cell line OVCAR-3
T2 sequence (looked up): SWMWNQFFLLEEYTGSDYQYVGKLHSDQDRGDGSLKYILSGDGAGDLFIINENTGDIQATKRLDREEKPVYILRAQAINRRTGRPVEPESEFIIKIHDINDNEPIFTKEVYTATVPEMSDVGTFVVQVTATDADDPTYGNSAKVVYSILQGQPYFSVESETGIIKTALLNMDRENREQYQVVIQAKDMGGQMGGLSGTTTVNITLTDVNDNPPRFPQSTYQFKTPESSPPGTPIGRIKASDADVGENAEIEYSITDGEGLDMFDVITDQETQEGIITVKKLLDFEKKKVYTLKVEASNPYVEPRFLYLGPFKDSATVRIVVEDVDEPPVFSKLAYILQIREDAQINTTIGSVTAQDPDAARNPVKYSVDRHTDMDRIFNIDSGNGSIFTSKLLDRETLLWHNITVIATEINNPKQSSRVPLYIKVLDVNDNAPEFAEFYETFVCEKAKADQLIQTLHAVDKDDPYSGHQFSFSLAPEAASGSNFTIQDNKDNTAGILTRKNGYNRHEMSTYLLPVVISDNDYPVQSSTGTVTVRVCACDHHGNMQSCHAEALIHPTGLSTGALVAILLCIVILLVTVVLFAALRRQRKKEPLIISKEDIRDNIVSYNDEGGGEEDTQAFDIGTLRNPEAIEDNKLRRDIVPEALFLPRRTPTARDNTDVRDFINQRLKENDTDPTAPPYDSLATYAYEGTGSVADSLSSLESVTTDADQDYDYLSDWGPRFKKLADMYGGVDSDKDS

B1: CL069463 antibody (antibody, V domains shown)
VH: EVQLVESGGGLVQPKGSLKLSCAASGFTFNTYALTWVRQAPGKGLEWVGRIKSKNKDYETYYADSVKDRFTISRNDSQSLLYLQMNNLKTEDTAIYYCVRQNWNYFDYWGQGTTLTVSS
VL: DIQMTQSPASLAASVGETVTITCRASENIYYSLAWYQQRQGKSPQLLIYNANSLKDGVPSRFSGSGSGTQYSMKINSMQPEDTATYFCQQAYDVPPTFGGGTKLEIK
notes: Mouse monoclonal antibody from hybridoma, purified from ascites with Protein A/G; also called #13; No. 13
B2: CL069066 antibody (antibody, V domains shown)
VH: EVKLLESGGGLVQPGGSLKLSCAASGFDFSRYWMTWVRQAPGKGLEWIGEINPDSSTINYTPSLKDKFIISRDNAKNTLYLQMNKVTSEDTALYYCTRRPHYYGYFDSWGQGTTLTVSS
VL: DIVLTQSPASLAVSLGQRATISCRASESVEYYGTTLMQWYQQKPGQPPQLLIYAGSNVESGVPARFSGSGSGTEFSLNIHPVEEDDIGMYFCQQSRKVPWTFGGGTKLEIK
notes: Mouse monoclonal antibody from hybridoma, purified from ascites with Protein A/G; also called #4; No. 4
B3: CL069439 antibody (antibody, V domains shown)
VH: EVQLQQSGTELVRTGASVKISCKASGYSFTGYYIHWIKQSHGESLEWIGYISCFNGDTSYNQNFKDRATFNVDTSSSTAYMQFISLTSEDSAVYYCVRGRYGNFNYFDYWGQGTTLTVSS
VL: DIVLTQSPASLAVSLGQRATISCRASESVEFYGTSLMQWFQQKPGHPPQLLIYATSNVDSGVPARFSASGSGTDFSLNIHPVEEADIAMYFCQQSRRIPWTFGGGTKLEIK
notes: Mouse monoclonal antibody from hybridoma, purified from ascites with Protein A/G; also called #16; No. 16
B4: CL069707 antibody (antibody, V domains shown)
VH: EVHLVESGGGLVQPKGSLKLSCVASGFTFTTYAMNWVRQAPGKGLEWVARIRIKNNNYATYYADSVTDRFTISRDDSQSMLYLQMNNLKTEDTAMYYCVRPDYGNYGLAYWGQGTLVTVSA
VL: EIVLTQSPTTMAASPGEKITITCSASSSISSHYLHWYQQKPGFSPKLLIYRSFYLASGVPLRFTGSGSGTSYSLTIGTMEAEDVATYYCQQDIVPLTFGAGTKLELK
notes: Mouse monoclonal antibody from hybridoma, purified from ascites with Protein A/G; also called #23; No. 23
B5: CL069463-H1L1 (antibody, human IgG1, kappa, V domains shown)
VH: B1 VH with K15S, P41S, N75D, Q78I, L80T, N87S, I95L, T114M
VL: DIQMTQSPSSLSASVGQRVTITCRASENIYYSLAWYQQKPGKPPRLLIYNANSLKDGVPSRFSGSGSGTQYTMTITSMQPEDFATYYCQQAYDVPPTFGGGTKLEIKR
notes: Humanized IgG1/kappa
B6: CL069707-H1L2 (antibody, human IgG1, kappa, V domains shown)
VH: B4 VH with H3Q, K15G, K19R, V23A, Q78K, S79N, M80S, N87S, M95V, A121S
VL: DIQLTQSPSSLSASVGDRVTITCSASSSISSHYLHWYQQKPGKSPKLLIYRSFYLASGVPLRFSGSGSGTDFTLTISSLQPEDFATYYCQQDIVPLTFGQGTKLEIKR
notes: Humanized IgG1/kappa, produced in 293 cells
B7: CL069707-H2L1 (antibody, human IgG1, kappa, V domains shown)
VH: EVQLVESGGGLVQPGGSLRLSCAASGFTFTTYAMNWVRQAPGKGLEWVGRIRIKNNNYATYYADSVTDRFTISRDDSKNSLYLQMNSLKTEDTAVYYCVRPDYGNYGLAYWGQGTLVTVSS
VL: B6 VL with L61S
notes: as for B6
B8: CL069707-H2L2 (antibody, human IgG1, kappa, V domains shown)
VH: B7 VH
VL: B6 VL
notes: as for B6

Positions count from the first letter of the chain named. Some results are limits rather than exact numbers.

The target in one test is T1, recombinant protein CDH6. As to the kind of experiment: ELISA, CDH6 coated at 1 ug/mL. On the procedure:
(§1) The recombinant protein CDH6 was coated on ELISA plates at 1 μg/mL overnight at 4° C.; after being washed with PBST, the plate was added with 10% fetal bovine serum, and the mixture was blocked at 37° C. for 1 h; the plate was added with 13 monoclonal antibodies of CDH6 with different dilutions (0.1 ng/mL to 100 ng/mL), and the mixture was reacted at 37° C. for 1 h; after being washed with PBST, the plate was added with horseradish peroxidase-labeled goat anti-human IgG secondary antibody (Goat anti Mouse (HRP), Thermo Fisher Scientific), and the mixture was reacted at 37° C. for 30 min; after the plate was repeatedly washed with PBST 5 times, the remaining droplets on the absorbent paper were patted as much as possible; each well of the plate was added with 100 μL of TMB (eBioscience) and placed in the dark at room temperature (20±5° C.) for 1.5 min; each well of the plate was added with 100 μL of 2 N H₂SO₄ stop buffer for stopping substrate reaction, OD values at 450 nm were read using a microplate reader, and the binding ability of the antibody to the target antigen CDH6 was analyzed.
In general terms: ELISA stands for enzyme-linked immunosorbent assay.
Consider B1, for which the sensitivity was not above 3.12 ng/mL.
Still for that read-out and setting: with B2 the figure was not above 6.3 ng/mL; with B3, not above 1 ng/mL.
Consider B4, for which the sensitivity is not above 1.56 ng/mL.

A further test has as its target T1, recombinant protein CDH6. The test can be described thus: ELISA, CDH6 coated; antibody 25 ng/mL. On the procedure:
as §1
For B1, the OD450 worked out at 1.8 OD450.
Still for that read-out and setting: with B2 the figure was 1.69 OD450; with B3, 3.69 OD450; with B4, 1.18 OD450.

In the next test the target is T1, recombinant protein CDH6. As to the kind of experiment: ELISA, CDH6 coated; antibody 50 ng/mL. On the procedure: as §1
Take B1: the OD450 amounted to 2.32 OD450.
Still for that read-out and setting: the value for B2 was 2.11 OD450; that for B3 was 3.89 OD450; that for B4 was 1.33 OD450.

Another test addresses T1, recombinant protein CDH6. The test can be described thus: ELISA, CDH6 coated; antibody 100 ng/mL. On the procedure: as §1
On to B1, for which the OD450 amounted to 2.62 OD450.
Take B2: the OD450 amounted to 2.38 OD450.
B3: the OD450 came to 3.9 OD450.
In the case of B4, the OD450 came out at 1.41 OD450.

In a further test the target is T1, recombinant protein CDH6. As to the kind of experiment: ELISA, CDH6 coated; antibody 0.10 ng/mL. On the procedure: as §1
On to B1, for which the OD450 was 0.073 OD450.
Same read-out and setting: the value for B2 was 0.048 OD450; that for B3 was 0.106 OD450; that for B4 was 0.069 OD450.

A further test deals with T1, recombinant protein CDH6. The test can be described thus: ELISA, CDH6 coated; antibody 0.20 ng/mL. On the procedure: as §1
Take B1: the OD450 is 0.086 OD450.
With B2, the OD450 is 0.05 OD450.
B3: the OD450 was 0.181 OD450.
For the molecule B4, the OD450 turned out to be 0.101 OD450.

Another test addresses T1, recombinant protein CDH6. As to the kind of experiment: ELISA, CDH6 coated; antibody 0.39 ng/mL. On the procedure: as §1
For B1, the OD450 was found to be 0.139 OD450.
B2: the OD450 came out at 0.063 OD450.
Still for that read-out and setting: the value for B3 was 0.255 OD450; that for B4 was 0.165 OD450.

Another test addresses T1, recombinant protein CDH6. The test can be described thus: ELISA, CDH6 coated; antibody 0.78 ng/mL. On the procedure:
as §1
As to B1, the OD450 worked out at 0.211 OD450.
Take B2: the OD450 amounted to 0.094 OD450.
The same measure, in the same setting: the value for B3 was 0.647 OD450.
Same read-out and setting: the value for B4 was 0.305 OD450.

For another test, the target named is T1, recombinant protein CDH6. The test can be described thus: ELISA, CDH6 coated; antibody 1.56 ng/mL. On the procedure: as §1
B1: the OD450 turned out to be 0.374 OD450.
Same read-out and setting: with B2 the figure was 0.17 OD450; with B3, 1.11 OD450.
Still for that read-out and setting: with B4 the figure was 0.577 OD450.

The target in the next test is T1, recombinant protein CDH6. As to the kind of experiment: ELISA, CDH6 coated; antibody 12.5 ng/mL. On the procedure:
as §1
As for B1, the OD450 was found to be 1.7 OD450.
The same measure, in the same setting: with B2 the figure was 1.08 OD450; with B3, 3.62 OD450.
Consider B4, for which the OD450 is 1.27 OD450.

For the next test, the target named is T1, recombinant protein CDH6. The test can be described thus: ELISA, CDH6 coated; antibody 3.13 ng/mL. On the procedure: as §1
As to B1, the OD450 came out at 0.596 OD450.
Regarding B2, the OD450 was 0.3 OD450.
The same measure, in the same setting: the value for B3 was 1.87 OD450; that for B4 was 0.831 OD450.

Another test concerns the target T1, recombinant protein CDH6. As to the kind of experiment: ELISA, CDH6 coated; antibody 6.25 ng/mL. On the procedure:
as §1
On to B1, for which the OD450 was determined as 0.975 OD450.
B2: the OD450 was found to be 0.577 OD450.
Still for that read-out and setting: the value for B3 was 2.82 OD450; that for B4 was 1.01 OD450.

The target in a further test is T2, CDH6 on the cell surface of OVCAR-3 …. The test can be described thus: flow cytometry (FACS) on OVCAR-3 cells, antibody titration, labelled secondary antibody, MFI.
As a reminder, the EC50 (read off the curve) is the midpoint of the concentration-response curve. As to B5, the “EC50 (read off the curve)” value is approximately 4 nM.

The next test shares this target. Described as above. The source holds these as a separate data set. On the procedure:
The binding EC50 of the humanized antibodies on tumor cell were tested as follow. Human ovarian cancer cell line OVCAR-3(purchased from National Collection of Authenticated Cell Cultures) cell culture was maintained in vitro as independent monolayer cultures at 37° C. in an atmosphere of 5% CO₂. The cells were harvested using trypsin-EDTA partial digestion followed by centrifugation at 1000 rpm for 5 minutes. The cell was resuspended in cold PBS and serial dilution of Ch069707 and CL069707-H1L1, CL069707-H1L2, CL069707-H2L1 and CL069707-H2L2 antibodies were added. Ch069707 antibody was a chimeric antibody. The variable regions were the same as those of CL069707, and the constant region was the same as human IgG1 constant regions (SEQ ID NO: 70 and SEQ ID NO: 71). The cell solutions were mixed, incubated at 4° C. and washed with cold PBS prior to addition of secondary antibody conjugates (for detection purposes). After incubation at 4° C., the cells were washed with PBS, and then subjected to flow cytometry (FACS) analysis.
As for B6, the “EC50 (read off the curve)” value is approximately 1 nM.
For the molecule B7, the “EC50 (read off the curve)” value was approximately 1 nM.
Same read-out and setting: the value for B8 was approximately 1 nM.

The record behind these values is patent publication US20250090677A1 (MULTITUDE THERAPEUTICS, published 2025).
